Experimental data from US20120028900A1.
pKd: −log10 of the molar value.

Key:
[1] = target: A1/A3-C1-C2 heterodimer of thrombin-cleaved FVIII (human) (UniProt P00451); assay: optical biosensor, after thrombin cleavage of purified protein
[2] = target: IR8 (90/b/73 R336I/R562K/R740A; del795-1688/Arg336Iso/Arg562Lys/Arg740Ala) (human) (UniProt P00451); assay: cell-based or functional assay
[3] = target: wild-type FVIII (human) (UniProt P00451); assay: cell-based or functional assay
[4] = target: von Willebrand factor (vWF) (human) (UniProt P04275); assay: ELISA and affinity biosensor analysis
[5] = target: von Willebrand factor (vWF) (human) (UniProt P04275); assay: FVIII-vWF binding ELISA; anti-A2 domain trap, vWF from FVIII-deficient plasma, peroxidase anti-vWF detection
[6] = target: von Willebrand factor (vWF) (human) (UniProt P04275); assay: summary of ELISA and biosensor results
[7] = target: von Willebrand factor (vWF) (human) (UniProt P04275); assay: in vitro binding to vWF; method not given
[8] = target: FVIII mutant M/F 2199/2200 W/W (UniProt P00451)
[9] = target: FVIII mutant L/L 2251/2252 L/S (L2252S) (UniProt P00451)
[10] = target: FVIII mutant M/F/L 2199/2200/2252 W/W/S (UniProt P00451)
[11] = target: IR8 (90/b/73 R336I/R562K/R740A; del795-1688/Arg336Iso/Arg562Lys/Arg740Ala) (human) (UniProt P00451); assay: biosensor; IR8 (30 nM) captured on immobilised Mab NMC-VIII/5, vWF added at 10 nM

Substance “A2 subunit of thrombin-cleaved R698L B-domainless FVIII (from UniProt P00451 392-759)” has a fold increased rate of A2 subunit dissociation compared to a B domainless FVIII control [1] of 2 fold.

With “A2 subunit of thrombin-cleaved R698W B-domainless FVIII (from UniProt P00451 392-759)” the fold increased rate of A2 subunit dissociation compared to a B domainless FVIII control [1] was 3 fold.

“ESH8, mouse monoclonal anti-light chain factor VIII antibody (American Diagnostica)” was tested, and the % Of Initial Activity, +ESH8 (APTT after 4 hour incubation at 37 C with FVIII-deficient plasma) [2] was 120% and the % Of Initial Activity, +ESH8 (APTT after 4 hour incubation at 37 C with FVIII-deficient plasma) [3] was 29%.

For “IR8 (90/b/73 R336I/R562K/R740A; del795-1688/Arg336Iso/Arg562Lys/Arg740Ala) (from UniProt P00451 20-812; P00451 1708-2351)”, the fold reduced affinity compared to rFVIII [4] was 20 fold, the fold lower binding affinity compared to wild-type FVIII [5] was 10 fold and the fold lower affinity than FVIII WT [6] was over 10 fold.

With “IR8/ESH8 complex (from UniProt P00451 20-812; P00451 1708-2351)” the pKd [7] was 8.89 and the fold lower binding affinity compared to wild-type FVIII [5] was 2 fold.

With factor IXa the “apparent affinity for factor IXa, Xase assay with 15% PS” value (“apparent affinity … with 15% PS” for short) [8] was “reduced 5-fold”, the “apparent affinity of factor IXa, Xase assay with saturating PL, 1000 uM” value (from here on “apparent affinity of factor IXa”) [8] was “decreased approximately 4-fold” and the “apparent affinity … with 15% PS” value [9] was “reduced 5-fold”. For the same substance, the “apparent affinity of factor IXa” value [9] was “decreased approximately 4-fold”, the “apparent affinity … with 15% PS” value [10] was “reduced 5-fold” and the “apparent affinity of factor IXa” value [10] was “decreased approximately 4-fold”.

“von Willebrand factor (vWF) (from UniProt P04275 764-2813)” gave a pKd [11] of 7.53, a koff [11] of 0.0042 s⁻¹ and a kon [11] of 140000 M⁻¹ s⁻¹.

“wild-type FVIII (from UniProt P00451 20-2351)” was tested, and the pKd [7] was 9.52.
